The values below come from publication PMC7845591.

This assay deals with endothelial protein C receptor (EPCR), residues 16 to 210, biotinylated on the BAP tag (human) (UniProt Q9UNN8). The assay is described as follows: SPR; Biacore T200; biotinylated EPCR captured on a CAP chip (150 RU); twofold dilution series of CIDRα domain or synthetic binder injected 240 s, dissociation 300 s; 20 mM HEPES pH 7.5, 150 mM NaCl, 0.005% Tween 20, 25°C; global fit to a 1:1 model.
UniProt Q9UNN8, sequence (Q9UNN8 16-210): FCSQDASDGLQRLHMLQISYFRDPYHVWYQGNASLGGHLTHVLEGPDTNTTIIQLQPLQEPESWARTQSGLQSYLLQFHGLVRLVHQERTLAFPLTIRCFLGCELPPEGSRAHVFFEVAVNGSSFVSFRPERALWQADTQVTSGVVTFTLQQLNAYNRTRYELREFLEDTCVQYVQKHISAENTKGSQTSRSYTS

“HB3var03 CIDRα1.4 domain D576A K642A double mutant (domain or fragment)” showed a Kd of 220 nM.

One may read the Kd as the equilibrium constant for the complex coming apart.
